Measured values reported in PMC4552487 (2015).

T1: Parkin (80-465)-Biotin, wild type (UniProt O60260 80-465, biotin (position not given))
T1 chain: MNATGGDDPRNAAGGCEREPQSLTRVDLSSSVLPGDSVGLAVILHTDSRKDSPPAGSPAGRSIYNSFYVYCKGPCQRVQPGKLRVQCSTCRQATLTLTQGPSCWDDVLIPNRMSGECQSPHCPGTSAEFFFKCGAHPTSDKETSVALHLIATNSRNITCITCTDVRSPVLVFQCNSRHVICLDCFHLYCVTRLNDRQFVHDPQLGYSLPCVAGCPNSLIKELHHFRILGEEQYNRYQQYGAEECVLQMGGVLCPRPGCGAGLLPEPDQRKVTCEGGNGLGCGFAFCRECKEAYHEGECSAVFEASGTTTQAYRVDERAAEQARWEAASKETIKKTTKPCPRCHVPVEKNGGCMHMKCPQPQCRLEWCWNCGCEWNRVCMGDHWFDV

B1: Ubl (protein)
chain: MIVFVRFNSSHGFPVEVDSDTSIFQLKEVVAKRQGVPADQLRVIFAGKELRNDWTVQNCDLDQQSIVHIVQRPWRK
B2: Ser65-phosphorylated Parkin Ubl domain (residues 1-76) (Ubl^Phospho-Ser65) (domain or fragment)
chain: B1 chain
modifications: phosphoserine at 65

Biological target: T1, Parkin (80-465)-Biotin, wild type
Assay: competition with GST-Ubl (AlphaScreen)

Row | Binder | IC50
1 | B1 | 134 nM
2 | B2 | > 2530 nM
